What is called Kd is the free concentration of one partner at which half of the binding sites on the other are occupied at equilibrium, for simple one-to-one binding. For orientation: koff means a measure of how fast the partners let go of each other. High values mean a short-lived complex, low ones a long-lived complex. What is called kon is the rate constant with which the complex forms. High values mean faster complex formation, low ones slower complex formation.

The values below come from doi:10.1101/2023.02.24.529952 (bioRxiv, 2023).

B1: CCL13 (ligand)
chain: not shown
notes: recombinant human CCL13; source: bought: PeproTech
B2: CCL5 (ligand)
chain: SPYSSDTTPCCFAYIARPLPRAHIKEYFYTSGKCSNPAVVFVTRKNRQVCANPEKKWVREYINSLEMS
notes: recombinant human CCL5; source: bought: PeproTech
B3: CCL11 (ligand)
chain: not shown
notes: recombinant human CCL11; source: bought: PeproTech
B4: IL-27 (complex)
chain 1: FPRPPGRPQLSLQELRREFTVSLHLARKLLSEVRGQAHRFAESHLPGVNLYLLPLGEQLPDVSLTFQAWRRLSDPERLCFISTTLQPFHALLGGLGTQGRWTNMERMQLWAMRLDLRDLQRHLRFQVLAAGFNLPEEEEEEEEEEEEERKGLLPGALGSALQGPAQVSWPQLLSTYRLLHSLELVLSRAVRELLLLSKAGHSVWPLGFPTLSPQP
chain 2: RKGPPAALTLPRVQCRASRYPIAVDCSWTLPPAPNSTSPVSFIATYRLGMAARGHSWPCLQQTPTSTSCTITDVQLFSMAPYVLNVTAVHPWGSSSSFVPFITEHIIKPDPPEGVRLSPLAERQLQVQWEPPGSWPFPEIFSLKYWIRYKRQGAARFHRVGPIEATSFILRAVRPRARYYVQVAAQDLTDYGELSDWSLPATATMSLGK
notes: source: bought: PeproTech
B5: CCL26 (ligand)
chain: TRGSDISKTCCFQYSHKPLPWTWVRSYEFTSNSCSQRAVIFTTKRGKKVCTHPRKKWVQKYISLLKTPKQL
notes: recombinant human CCL26; source: bought: PeproTech
B6: CXCL14 (ligand)
chain: SKCKCSRKGPKIRYSDVKKLEMKPKYPHCEEKMVIITTKSVSRYRGQEHCLHPKLQSTKRFIKWYNAWNEKRRVYEE
notes: recombinant human CXCL14; source: bought: PeproTech
B7: CCL28 (ligand)
chain: SEAILPIASSCCTEVSHHISRRLLERVNMCRIQRADGDCDLAAVILHVKRRRICVSPHNHTVKQWMKVQAAKKNGKGNVCHRKKHHGKRNSNRAHQGKHETYGHKTPY
notes: recombinant human CCL28; source: bought: PeproTech
B8: CXCL11 (ligand)
chain: FPMFKRGRCLCIGPGVKAVKVADIEKASIMYPSNNCDKIEVIITLKENKGQRCLNPKSKQARLIIKKVERKNF
notes: recombinant human CXCL11; source: bought: PeproTech
B9: CCL21 (ligand)
chain: SDGGAQDCCLKYSQRKIPAKVVRSYRKQEPSLGCSIPAILFLPRKRSQAELCADPKELWVQQLMQHLDKTPSPQKPAQGCRKDRGASKTGKKGKGSKGCKRTERSQTPKGP
notes: recombinant human CCL21; source: bought: PeproTech
B10: CCL25 (ligand)
chain: QGVFEDCCLAYHYPIGWAVLRRAWTYRIQEVSGSCNLPAAIFYLPKRHRKVCGNPKSREVQRAMKLLDARNKVFAKLHHNTQTFQAGPHAVKKLSSGNSKLSSSKFSNPISSSKRNVSLLISANSGL
notes: recombinant human CCL25; source: bought: PeproTech
B11: CXCL13 (ligand)
chain: VLEVYYTSLRCRCVQESSVFIPRRFIDRIQILPRGNGCPRKEIIVWKKNKSIVCVDPQAEWIQRMMEVLRKRSSSTLPVPVFKRKIP
notes: recombinant human CXCL13; source: bought: PeproTech
B12: CXCL9 (ligand)
chain: TPVVRKGRCSCISTNQGTIHLQSLKDLKQFAPSPSCEKIEIIATLKNGVQTCLNPDSADVKELIKKWEKQVSQKKKQKNGKKHQKKKVLKVRKSQRSRQKKTT
notes: recombinant human CXCL9; source: bought: PeproTech
B13: HCoV-OC43 Nucleocapsid (N) protein (2X-StrepTag tagged) (natural protein)
chain: MSFTPGKQSSSRASSGNRSGNGILKWADQSDQVRNVQTRGRRAQPKQTATSQQPSGGNVVPYYSWFSGITQFQKGKEFEFVEGQGPPIAPGVPATEAKGYWYRHNRGSFKTADGNQRQLLPRWYFYYLGTGPHAKDQYGTDIDGVYWVASNQADVNTPADIVDRDPSSDEAIPTRFPPGTVLPQGYYIEGSGRSAPNSRSTSRTSSRASSAGSRSRANSGNRTPTSGVTPDMADQIASLVLAKLGKDATKPQQVTKHTAKEVRQKILNKPRQKRSPNKQCTVQQCFGKRGPNQNFGGGEMLKLGTSDPQFPILAELAPTAGAFFFGSRLELAKVQNLSGNPDEPQKDVYELRYNGAIRFDSTLSGFETIMKVLNENLNAYQQQDGMMNMSPKPQRQRGHKNGQGENDNISVAVPKSRVQQNKSRELTAEDISLLKKMDEPYTEDTSEI
notes: also called rN; HCoV-OC43 rN; source: HEK293-FT, transfected, in crude lysate; not shown: 2X-StrepTag, C-terminal, kept

T1 sequence (P48061 22-89): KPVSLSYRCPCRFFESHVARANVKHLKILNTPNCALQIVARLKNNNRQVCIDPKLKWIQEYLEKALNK

One assay addresses B13. As to the kind of experiment: BLI. The settings on record: one partner purified.
Turning to B1, the Kd was found to be 1600 nM, the dissociation rate constant (koff) amounted to 0.025 s⁻¹ and the kon turned out to be 19000 M⁻¹ s⁻¹.

The molecule B2 displayed a Kd of 56000 nM, an off-rate constant (koff) of 0.015 s⁻¹ and a kon of 2100 M⁻¹ s⁻¹.

On to B3, for which the dissociation constant Kd is 1400 nM, the koff was found to be 0.021 s⁻¹ and the kon was 17000 M⁻¹ s⁻¹.

In turn, B4 displayed a Kd of 55 nM, a koff of 0.0024 s⁻¹ and a kon of 51000 M⁻¹ s⁻¹.

Turning to B5, binding was characterised by a dissociation constant (Kd) of 620 nM, the koff was determined as 0.014 s⁻¹ and the kon was determined as 20000 M⁻¹ s⁻¹.

Take B6: the Kd came to 580 nM, the koff turned out to be 0.0063 s⁻¹ and the kon came out at 12000 M⁻¹ s⁻¹.

The molecule B7 registered a dissociation constant Kd of 27 nM, a koff of 0.0015 s⁻¹ and a kon of 60000 M⁻¹ s⁻¹.

In turn, B8 had a dissociation constant (Kd) of 730 nM, a koff of 0.012 s⁻¹ and a kon of 18000 M⁻¹ s⁻¹.

The molecule B9 gave a Kd of 290 nM, a koff of 0.012 s⁻¹ and a kon of 67000 M⁻¹ s⁻¹.

Molecule B10 returned an equilibrium dissociation constant (Kd) of 610 nM, a koff of 0.0048 s⁻¹ and a kon of 8300 M⁻¹ s⁻¹.

As to B11, the Kd is 140 nM, the off-rate (koff) turned out to be 0.0046 s⁻¹ and the kon was found to be 44000 M⁻¹ s⁻¹.

On to B12, for which binding was characterised by a dissociation constant (Kd) of 29 nM, the off-rate (koff) is 0.0022 s⁻¹ and the kon is 82000 M⁻¹ s⁻¹.

The next assay addresses T1, CXCL12α (human, UniProt P48061-2 22-89).
T1 construct: source: bought: PeproTech
As to the kind of experiment: BLI. The following applies: one partner purified.
As for B13, the Kd is 0.46 nM, the koff stood at 3.7e-05 s⁻¹ and the on-rate constant (kon) stood at 62000 M⁻¹ s⁻¹.
